Consider 16 molecules from patent US20180155451A1 (published 2018).

First the molecules themselves.
T1: FcγRIIb extracellular domain with C-terminal His tag (human, UniProt P31994 43-217)
T1 construct: extracellular domain; Soluble receptor expressed in FreeStyle293 cells and used as analyte in Biacore; also called FcgRIIb; 2b; not shown: His tag at the C terminus
T1 sequence (looked up): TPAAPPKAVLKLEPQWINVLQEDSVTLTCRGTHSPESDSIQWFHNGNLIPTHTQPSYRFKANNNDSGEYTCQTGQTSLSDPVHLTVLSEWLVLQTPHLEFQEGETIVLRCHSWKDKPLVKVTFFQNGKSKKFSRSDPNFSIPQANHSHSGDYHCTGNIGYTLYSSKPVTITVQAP

B1: heterodimerized antibody GpH7-A5/GpH7-B3 variant Y296_01G/GpL16-k0 (antibody, human IgG1, kappa)
heavy 1: not shown
heavy 2: not shown
light: DIVMTQSPLSLPVTPGEPASISCQASESLVHSNRNTYLHWYLQKPGQSPQLLIYKVSNRFSGVPDRFSGSGSGTDFTLKISRVEAEDVGVYYCSQNTHVPPTFGQGTKVEIERTVAAPSVFIFPPSDEQLKSGTASVVCLLNNFYPREAKVQWKVDNALQSGNSQESVTEQDSKDSTYSLSSTLTLSKADYEKHKVYACEVTHQGLSSPVTKSFNRGEC
notes: Substitution in only one H chain (GpH7-B3 side); also called He Ab
B2: heterodimerized antibody GpH7-A5/GpH7-B3 variant S298_03V/GpL16-k0 (antibody, human IgG1, kappa)
heavy 1: not shown
heavy 2: not shown
light: B1 light
notes: as for B1
B3: heterodimerized antibody GpH7-A5/GpH7-B3 variant S298_07I/GpL16-k0 (antibody, human IgG1, kappa)
heavy 1: not shown
heavy 2: not shown
light: B1 light
notes: as for B1
B4: heterodimerized antibody GpH7-A5/GpH7-B3 variant S298_02A/GpL16-k0 (antibody, human IgG1, kappa)
heavy 1: not shown
heavy 2: not shown
light: B1 light
notes: as for B1
B5: heterodimerized antibody GpH7-A5/GpH7-B3 variant Y296_05P/GpL16-k0 (antibody, human IgG1, kappa)
heavy 1: not shown
heavy 2: not shown
light: B1 light
notes: as for B1
B6: heterodimerized antibody GpH7-A5/GpH7-B3 variant S298_01G/GpL16-k0 (antibody, human IgG1, kappa)
heavy 1: not shown
heavy 2: not shown
light: B1 light
notes: as for B1
B7: heterodimerized antibody GpH7-A5/GpH7-B3 variant Y296_03V/GpL16-k0 (antibody, human IgG1, kappa)
heavy 1: not shown
heavy 2: not shown
light: B1 light
notes: as for B1
B8: heterodimerized antibody GpH7-A5/GpH7-B3 variant Y296_12R/GpL16-k0 (antibody, human IgG1, kappa)
heavy 1: not shown
heavy 2: not shown
light: B1 light
notes: as for B1
B9: heterodimerized antibody GpH7-A5/GpH7-B3 variant Q295_18N/GpL16-k0 (antibody, human IgG1, kappa)
heavy 1: not shown
heavy 2: not shown
light: B1 light
notes: as for B1
B10: heterodimerized antibody GpH7-A5/GpH7-B3 variant Y296_07I/GpL16-k0 (antibody, human IgG1, kappa)
heavy 1: not shown
heavy 2: not shown
light: B1 light
notes: as for B1
B11: heterodimerized antibody GpH7-A5/GpH7-B3 variant S298_05P/GpL16-k0 (antibody, human IgG1, kappa)
heavy 1: not shown
heavy 2: not shown
light: B1 light
notes: as for B1
B12: heterodimerized antibody GpH7-A5/GpH7-B3 variant Y296_13S/GpL16-k0 (antibody, human IgG1, kappa)
heavy 1: not shown
heavy 2: not shown
light: B1 light
notes: as for B1
B13: heterodimerized antibody GpH7-A5/GpH7-B3 variant Y296_08L/GpL16-k0 (antibody, human IgG1, kappa)
heavy 1: not shown
heavy 2: not shown
light: B1 light
notes: as for B1
B14: heterodimerized antibody GpH7-A5/GpH7-B3 variant Y296_19Q/GpL16-k0 (antibody, human IgG1, kappa)
heavy 1: not shown
heavy 2: not shown
light: B1 light
notes: as for B1
B15: heterodimerized antibody GpH7-A5/GpH7-B3 variant Q295_16H/GpL16-k0 (antibody, human IgG1, kappa)
heavy 1: not shown
heavy 2: not shown
light: B1 light
notes: as for B1
B16: heterodimerized antibody GpH7-A5/GpH7-B3 variant Y296_02A/GpL16-k0 (antibody, human IgG1, kappa)
heavy 1: not shown
heavy 2: not shown
light: B1 light
notes: as for B1

T2 sequence (P12314 16-292): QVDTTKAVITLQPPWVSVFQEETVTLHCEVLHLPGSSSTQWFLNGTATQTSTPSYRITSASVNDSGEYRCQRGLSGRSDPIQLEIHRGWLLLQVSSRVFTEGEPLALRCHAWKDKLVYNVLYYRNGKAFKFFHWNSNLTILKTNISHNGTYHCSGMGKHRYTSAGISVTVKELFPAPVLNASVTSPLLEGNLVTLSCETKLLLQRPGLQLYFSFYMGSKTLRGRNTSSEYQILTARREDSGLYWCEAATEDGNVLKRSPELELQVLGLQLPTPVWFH

One assay addresses T2, FcγRIa extracellular domain with C-terminal His tag (human, UniProt P12314 16-292).
T2 construct: extracellular domain; Soluble receptor expressed in FreeStyle293 cells and used as analyte in Biacore; also called FcgRI; 1a; not shown: His tag at the C terminus
Kind of assay: SPR Biacore, relative binding amount. (In general: SPR reads the build-up and loss of mass on a sensor chip optically.)
Take B1: the He/Con_1a was 103 % of GpH7-A5/GpH7-B3/GpL16-k0 (=100).

For the molecule B2, the He/Con_1a was 110 % of GpH7-A5/GpH7-B3/GpL16-k0 (=100).

Take B3: the He/Con_1a was 107 % of GpH7-A5/GpH7-B3/GpL16-k0 (=100).

Regarding B4, the He/Con_1a was 107 % of GpH7-A5/GpH7-B3/GpL16-k0 (=100).

Turning to B5, the He/Con_1a was 95.6 % of GpH7-A5/GpH7-B3/GpL16-k0 (=100).

Regarding B6, the He/Con_1a was 104 % of GpH7-A5/GpH7-B3/GpL16-k0 (=100).

In the case of B7, the He/Con_1a was 104 % of GpH7-A5/GpH7-B3/GpL16-k0 (=100).

Take B8: the He/Con_1a was 106 % of GpH7-A5/GpH7-B3/GpL16-k0 (=100).

Consider B9, for which the He/Con_1a is 102 % of GpH7-A5/GpH7-B3/GpL16-k0 (=100).

Turning to B10, the He/Con_1a is 104 % of GpH7-A5/GpH7-B3/GpL16-k0 (=100).

Take B11: the He/Con_1a is 91.6 % of GpH7-A5/GpH7-B3/GpL16-k0 (=100).

As to B12, the He/Con_1a is 105 % of GpH7-A5/GpH7-B3/GpL16-k0 (=100).

For B13, the He/Con_1a is 104 % of GpH7-A5/GpH7-B3/GpL16-k0 (=100).

For B14, the He/Con_1a is 112 % of GpH7-A5/GpH7-B3/GpL16-k0 (=100).

As for B15, the He/Con_1a is 102 % of GpH7-A5/GpH7-B3/GpL16-k0 (=100).

Consider B16, for which the He/Con_1a was 103 % of GpH7-A5/GpH7-B3/GpL16-k0 (=100).

The target of another assay is T1, FcγRIIb extracellular domain with …. The assay is described as follows: SPR Biacore, relative binding amount.
With B1, the He/Con_2b was 79.3 % of GpH7-A5/GpH7-B3/GpL16-k0 (=100).

Consider B2, for which the He/Con_2b is 64.5 % of GpH7-A5/GpH7-B3/GpL16-k0 (=100).

Regarding B3, the He/Con_2b is 70.6 % of GpH7-A5/GpH7-B3/GpL16-k0 (=100).

Regarding B4, the He/Con_2b was 73.4 % of GpH7-A5/GpH7-B3/GpL16-k0 (=100).

In the case of B5, the He/Con_2b was 36.6 % of GpH7-A5/GpH7-B3/GpL16-k0 (=100).

With B6, the He/Con_2b is 80.1 % of GpH7-A5/GpH7-B3/GpL16-k0 (=100).

For the molecule B7, the He/Con_2b is 79.3 % of GpH7-A5/GpH7-B3/GpL16-k0 (=100).

Take B8: the He/Con_2b was 79.5 % of GpH7-A5/GpH7-B3/GpL16-k0 (=100).

Regarding B9, the He/Con_2b is 64.9 % of GpH7-A5/GpH7-B3/GpL16-k0 (=100).

Take B10: the He/Con_2b was 84.3 % of GpH7-A5/GpH7-B3/GpL16-k0 (=100).

Regarding B11, the He/Con_2b was 11.9 % of GpH7-A5/GpH7-B3/GpL16-k0 (=100).

On to B12, for which the He/Con_2b was 86.3 % of GpH7-A5/GpH7-B3/GpL16-k0 (=100).

B13: the He/Con_2b is 82.3 % of GpH7-A5/GpH7-B3/GpL16-k0 (=100).

Regarding B14, the He/Con_2b was 89.3 % of GpH7-A5/GpH7-B3/GpL16-k0 (=100).

Take B15: the He/Con_2b was 62.7 % of GpH7-A5/GpH7-B3/GpL16-k0 (=100).

Regarding B16, the He/Con_2b was 82 % of GpH7-A5/GpH7-B3/GpL16-k0 (=100).

The next assay addresses T2, FcγRIa extracellular domain with …. Kind of assay: SPR Biacore; relative binding to FcγRIa divided by that to FcγRIIb.
B1: the “Ia/IIb He_1a/2b” value was 1.29 ratio of He/Con_1a to He/Con_2b.

In the case of B2, the “Ia/IIb He_1a/2b” value was 1.7 ratio of He/Con_1a to He/Con_2b.

B3: the “Ia/IIb He_1a/2b” value is 1.52 ratio of He/Con_1a to He/Con_2b.

For B4, the “Ia/IIb He_1a/2b” value was 1.45 ratio of He/Con_1a to He/Con_2b.

Consider B5, for which the “Ia/IIb He_1a/2b” value was 2.61 ratio of He/Con_1a to He/Con_2b.

Regarding B6, the “Ia/IIb He_1a/2b” value was 1.29 ratio of He/Con_1a to He/Con_2b.

With B7, the “Ia/IIb He_1a/2b” value was 1.31 ratio of He/Con_1a to He/Con_2b.

Consider B8, for which the “Ia/IIb He_1a/2b” value was 1.34 ratio of He/Con_1a to He/Con_2b.

With B9, the “Ia/IIb He_1a/2b” value is 1.58 ratio of He/Con_1a to He/Con_2b.

In the case of B10, the “Ia/IIb He_1a/2b” value was 1.24 ratio of He/Con_1a to He/Con_2b.

Regarding B11, the “Ia/IIb He_1a/2b” value was 7.7 ratio of He/Con_1a to He/Con_2b.

Take B12: the “Ia/IIb He_1a/2b” value is 1.22 ratio of He/Con_1a to He/Con_2b.

Consider B13, for which the “Ia/IIb He_1a/2b” value was 1.26 ratio of He/Con_1a to He/Con_2b.

As to B14, the “Ia/IIb He_1a/2b” value is 1.25 ratio of He/Con_1a to He/Con_2b.

With B15, the “Ia/IIb He_1a/2b” value is 1.64 ratio of He/Con_1a to He/Con_2b.

As to B16, the “Ia/IIb He_1a/2b” value was 1.26 ratio of He/Con_1a to He/Con_2b.
